The record followed here is paper PMC10268231 (Nature, 2021).

In data set [1] the target is T1, CTC1;STN1;TEN1;POLA1 (p180);POLA2 (p70);PRIM1 (p49);PRIM2 (p58) (human;human;human;human;human;human;huma …, UniProt Q2NKJ3;Q9H668;Q86WV5;P09884;Q14181;P49642;P49643 …, ||||||). Put plainly: cryo-EM.
In data set [2] the target is T1, CTC1;STN1;TEN1;POLA1 (p180);POLA2 …. Put plainly: cryo-EM. This is another data set of the same source.
Data set [3] shares this target. The experiment in a line: negative-stain EM.

For the molecule TTAGGGTTAGGGTTAGGG (ssDNA) [3xTEL], the binding result in data set [1] was “binds”.
Take TTAGGGTTAGGGTTAGGGTTAGGGTTAGGGTTAGGG (ssDNA) [6xTEL]: in data set [2], the binding result was “binds”.
As to TTAGGGTTAGGGTTA (ssDNA) [(TTAGGG)2TTA 15-nt template], the binding result in data set [3] was “binds”.
